The DeepSol protein solubility set

test: soluble on expression in E. coli; label from the status in PepcDB or PDB records

Soluble on expression in E. coli, not soluble:
MGSDKIHHHHHHMTIETIKRIIEEENVRFIRLQFTDINGTLKNLEITPDVFLESWEDGIMFDGSSIEGFVRIEESDMYLKPVLDTFAVLPWTVDGAKSARVICDVYTPDGKPFEGDPRYRLRRMMEKAEQLGYTPYAGPEMEFFILPINEKGEPVPEFLDHGGYFDLLPLSKVEEIRRDIAIALEKMGITVEATHHEVAPSQHEVDFRYDTFLRTADNAQTVKLVIKTMAIFHGYHATFMPKPFYGVNGSGMHVHMSLFRGDKNAFYDPDDPLGLSKELRYFVGGILKHAKALAAVTNPTINSYKRLVPGYEAPVYISWSVGNRSALIRIPKARGKATRLEYRSPDPSCNIYLAFAAILAAGLDGIINKIEPPAPVEENIYHMTSERREELNIESLPGSLKEAVEELKKDDVIIDALGEHIFEKFVEAAEKDWKEFSTYVTNWELQRYLYL, MGSDKIHHHHHHMTISYEKFHLKEVINASGKMTILGVSKVSEAVLAAQRFGGEHFFEMSELSVQTGAFLANLLKVEDAQIVSSASAGIAQSVAALIGKGSLYHAYHPYTEKIEQREIVLPKGHNVDYGTPVEVMVAQGGGQVVEAGYANMCSPEHVEMMISEKTAAILYIKSHHTVQKSMLTVAEAAKVAQRHKVPLIVDAAAEEDLFKYTEAGADLVIYSGAKAIEGPSAGLVVGKKEYIDWVRLQGKGIGRAMKIGKDNILGFTQAVEEYLAHGSESGASMQERLKPFVEAINNLSDLTAKIVQDGAGRDIYRASVKVDGRKTAKEVIQALKAESPAIYTREYQANNGIIEFDIRSVNQEEMNKIVQRLQEIMDKKEK, MGSDKIHHHHHHMTKAKYQQIEEILRRQITNGHYQEGDLIPKEFDLAEKYQVSRPTIRHAVQDLVNQGYLERRKHVGTIVKQTKIGQEFTHVLQSYNSEMSQKGLIAQTQVLFFKKEKASAEVAKALDLTENAPVYKLTRLRSADGNPIVLVTTYLPASKLSDFEKIDFTQQSLYQELEKRSLPIVHVKRKLEVKSADEMTANLLNIEEKVPIFYFHTYGYTKGEVPLEYSIAMYRGDENYFVIDLKR, MGSDKIHHHHHHMTLDLKQEKGREIFFRLAEKADVIIENFVPGVVKKLGVDYEAVKKVKPDIIYCHVSGFGQDGPYRDRPAFDQLIQGEAGIISYTGTRETPCKINVPITDLLASMYGAYAVLAALLRREKTGEGMEIDISLFDCAVTMMLNLMNMAIVEGMKDEELRMGTKYFLATPYEPYPAGDGKLVNVVVATEWHWKEFCKAVGLEELLDDPRFATNQQRLKHREQLERIIIEKFREKPRDDWIEILLKAGVPCGAVNTIQEVIEHPQTKHRKTVVEVDYPELGKIKLFNNPVKFSGFEVEVRRPPKLGEHTEEILKSIGLSEEEIADLRA, MGSDKIHHHHHHMTLKKLRANDRMKQIMAGYYMMGNQAEVKGWITSGAPVELLYAMDIYPVYPENHGALIGAAKQGPYFSDFAERKGFSRDLCSYARCDIGCVFAGTSPIGGLPEPTFLFACNNICNTVVKWYEVLSRIFKVPLFVLDTPFVRKELKESYVKYVHDQLYEFVDFLEKTTGRELSDSKLRDTVIKSIQGVKAYAEVLGMARHKPSPLTCFDAFINMAPIVCLRGTDYPVQFYAEMKEELEERVKRGEGAIENEEIRLLWDNIPVWYRLKWFSEFFAERNACLVADTYTNAWTGFISIDKSDIFWSMAETYTFIYLNIGLEHMAEAINRLIDYYDVDGAVIHSNRSCKPYSFGQYELQKMIEVPSVIIEADMVDSRTFSEAQVETRLEAFLEMLR, MGSDKIHHHHHHMTLRARIQTAVSLVYPARCLNCGGLVESDFGLCGACWRDTTFISGLVCEGCGAPLPGEDDGQMVHCDACLRAPGEWDRGRAALVYTGQGRRLVLALKHGDRTDLVRPASAWMARAARVLLSPKPLLVPVPLHWTRLLHRRYNQSALLAQAIAAREECDCCPDALIRVAKTPMLEGYSRSERRALLSDAIRPNPRMASRLKGRRVLLVDDVMTSGSTLSACARACMDAGAKSTNVAVLARVTGS, MGSDKIHHHHHHMTLSEYLQQLTQFKTIEELWRAHVQQMSRYGFDRLLYGYTLFKTRTSLGDPDDFVILTNHCPEYLQGFLADGLYAHAPMLTWALENEGHASWRVSQEMAAQGLLDKQARKVQDFNQSMGVHAGYTISFNSASERFKGAISLAARADLDQDGIDQIWAEHGADIVLMNNVAHLKILTLPYHAPKRGLTKRQREVLQWVGDGKTTQDIALLMGLTPATIEKHLRLARATLSVETTAQAVLKAALHNQMYAVEH, MGSDKIHHHHHHMTLTANNKKRAVLRVRPGQFVVTPAIEQVAIRALRYLTSGFAIHLRGPAGTGKTTLAMHLANCLDRPIMLIFGDDEFKSSDLIGSESGYTHKKLLDNYIHSVLKVEDEFKQNWVDSRLTLACREGFTLVYDEFNRSRPEVNNVLLSALEEKILTLPPSSNQPEYLHVNPQFRAIFTSNPEEYCGVHSTQDALMDRLVTINMPEPDELTQTEILAQKTALNRADALLVVQLVKAFRSRTGGEKTSGLRSCLMIAKVCAEHNILVAPESSDFREICADVLFNRTNWSASEATTIFLELLNHLNLEEIEEFKNSITSEDTDAIADEDHNAINESGFPTIIDSQFGTLDSEVLEQPGVEDSIPFEREIYLYLQQYKSAALALLQQEFELSRTVATNALNSLEQKGLVSKNNHVYTIEEPNQP, MGSDKIHHHHHHMTMLSTPQPTLADLAIEPGLPTVVSPRAGAAISLEEAAPLLRAIVDDTLERAGGVLFTGFHVASIDAFQSFAGSFGHPLIGYEFASTPRSQVEGAVYTSTEYPPHRSIPLHNEQSYTREWPLRIWFHCALAARSGGATPIADSRAIYRALDPALVDRFAKRELLYVRNFGQGLDLPWEQAFGSADPRTVERICRARGIECEWRDSEDGELLLRTRERCQAVARHPRTGEHVWFNQANLFHLSSLDEDMQEALIDSVGLENVPRNVYYGDGEPLEADALAEIRGVLDQQRIVFPWLTGDVLMLDNMLSAHARDPFEGPRKVVVAMARSYSEAEGEKRTAAP, MGSDKIHHHHHHMTNAAKTGVERTYEYKERINGILGMMEQAPAEQRNPVLEGLLRLIMETNERTIDCAENGKPFVSTWYGNAPEILTAMDIHFIVPVFDILLHEYFTDLYDVKEADKISLPDDICSLIRFGAYAIENKLLPRPTAIISMLEPCDAELMLHQYYQSSEHWGGVPTFGLDPAYGSTDEDFMYFAGELKRLIHFLVEITGQKYDVDKLRKVVAETNTQYELWAEYNELRRVTPCPHGSFQGSVPLWTLTQFISSGDPRATELIRMMIMDAEAKVKAGIGAVPNEQIRILWADLAPQWGDLLAPWLAEEWGANVVMDYQGYSPYTHIDTTSEDTMLYGLARRALHEVPMIRQGRGTVEVMIEDMTRIIKDYTINCVFWPGHMGHKDVSGSVHFMQELCRSLNVPLLCLTTSLFDERYTPLDKVKQQMSEFFEATGWSKNSST, MGSDKIHHHHHHMTNWLPDPSALASPLHSSLALAIAKAISEGKLPKGTQLPTHRKLAEELGLSVHTVSKAYESLRRQRLIDGQVGRGSYVLDLNTPDDQPFQLSSERGRNFDLSISRPAFSQRHAELFQQVLADLPQGLDPSYYLACRPNVGHDAHRAAGETWLRICGLDVPSERIIMTNGVSHGMSAALSALARPGDTVVSSRITHHLLVSGCSYLGLNLVGIDFDQDGMLPDALDRHCSENNAKVLFLLPSLANTTVEMIPEERRQALVQVARKHNLYIIENDAFGPVAEDRPVPVAALAPERTIYLTTFTKCTVSGLRAGYMAAPEHLLPALTGRIVVFGWMATPLMCEIATRWVLDGTALELALWQRRALAERYEIASQALQGHQWRGHPSALHLWLPLESGWTTSSFVAYARQLKVAVAPDAPFLTPKTPPPNAVRISLGSVQDLSRFKQAMELVGGMLSRPPEGVAPLAF, MGSDKIHHHHHHMTPSEYQNPILCADYSDPDIVRVGDDFFMVSSSFNHVPALPILHSTDLVNWTIINHVMDELPLPGYDRYQPGKGVWAPSIRWHDGKLWVCFSTPDEGIFICHTEDPWGKWSAPHCLREARGWIDPCPFWDDNGQAWLVHAFAHSRSGIKHKLQLFAMAPDASELLGEGQIIYDGCCDLPTLEGPKVYQRAGWYYIFAPAGGVENGWQTVLRARQMTGPWEAKNVLFQGNTSINGPHQGGWVEGEEGECWFVHFQDLHLYGRVVHLQPMSWGNDGWPRIGEQIGNCGVGQPVLRWPRPKGLTPSPALAPQTSDYFAQGQPGIQWQWQANPSPEWLLPAEGELRLRCVPLSEVDGQRALYWAPQLLLQKFPALTFSAKTSVTLYAAQDGDAGGLIVYGERYAALLVEFGQGGYRLVWRHGWMSDAGVVRETRQVLAELKCGKCQLQVAVGEGGLCQFSWRAEEEWRKVPLCFAAGKGKWVGAKFGLLAASMVGLQSEGYSALQDFEVIL, MGSDKIHHHHHHMTQEMILANATLILAGETRTGCVKISDSVIADIADGSSVPAGAVDLEGDFLSPGLVELHTDNLERHIEPRPGVDWPHAAALVAHDAELASTGITTVFDAMRVGSIPSGKGRYIKYARQLASEMLDLRTKDMLKISHFLHLRAEVCSETLAEELAEFTAEDRVGLVSLMDHTPGQRQFRDIAKLEQYVKSKRGMSDEEFINHVAQLKDLRARFGDLHEATTVAEAARFGAVLASHDDTTADQVQTSAGHGIRLAEFPTTVEAARACHAHGIKVMMGAPNLIRGGSHSGNVAARELADLELLDIVSSDYIPAALLQAAVKLGEIWGDLARGMATVTAAPAASVGLTDRGVLEVGKRADLIRFRTREGVPMLRAVYSRGARVA, MGSDKIHHHHHHMTQEQTRPKHMAAGETPEQHAAFEARIARGEKIEPGDWMPAEYRRQLIRMISQHAHSEVVGMLPEGEWIARAPSLKRKTILMAKVQDEAGHGQYLYHAAETLGVTREEMLDALLTRKAKYSSIFNYPTLTWADVGMIGWLVDGAAIKNQTMLAGCSYGPYSRAMVRICSEETFHHKQGKEMMVLYAQGTPEQRQMAQDALNRWWWPAVQMLGPHDSDSPNTGALSKWGIKLKTNDEVRQEFINEHVPELLEAGLTIPDPDLHQDEAGNWVHGPIDWSEFWAVIKGEQGLGNERLATRQAAQDEGAWVREALEAYMARQAKGEAAD, MGSDKIHHHHHHMTQHVIEMREITKKFGDFVANDHINLNVRKGEIHALLGENGAGKSTLMNMLAGLLEPTSGEIVINDKPVQIDSPSKSAKLGIGMVHQHFMLVEAFTVAENIILGNEVVKNGCLDLNQASKDIKVLSEKYGLAINPSAKVSDISVGAQQRVEILKTLYRGADILIFDEPTAVLTPAEIKELMTIMKNLVKEGKSIILITHKLDEIRAVADRVTVIRRGKSIETVDVAGATSQDLAEMMVGRSVSFTTSKKAAEPKDVVLSIKNLEVDENRGVPAVKGLSLDVRAGEIVGIAGIDGNGQSELIQAITGLRKVKSGSIMIKNNEVTHLSSRKITELSVGHVPEDRHRDGLILDLSLAENTALQTYYKQPLSQNGILNYTKINDYARQLMKEFDVRGANELVPARGFSGGNQQKAIIAREVDRDPDLLIVSQPTRGLDVGAIEYIHKRLIKERDKGKAVLVVSFELDEILNLSDRIAVIHDGKIQGIVSPENTNKQELGILMAGGSIHKEEGHV
